Holding throughout (experiment): radioligand displacement, compound at 10 µM
Holding throughout (settings): remark: other sources report otherwise
(In general: Loss of bound radioactivity is the signal in a displacement assay; it reports binding, not function.)

Experiment [1] has as its target T1, D1 (h) (human), P21728.
T1 chain: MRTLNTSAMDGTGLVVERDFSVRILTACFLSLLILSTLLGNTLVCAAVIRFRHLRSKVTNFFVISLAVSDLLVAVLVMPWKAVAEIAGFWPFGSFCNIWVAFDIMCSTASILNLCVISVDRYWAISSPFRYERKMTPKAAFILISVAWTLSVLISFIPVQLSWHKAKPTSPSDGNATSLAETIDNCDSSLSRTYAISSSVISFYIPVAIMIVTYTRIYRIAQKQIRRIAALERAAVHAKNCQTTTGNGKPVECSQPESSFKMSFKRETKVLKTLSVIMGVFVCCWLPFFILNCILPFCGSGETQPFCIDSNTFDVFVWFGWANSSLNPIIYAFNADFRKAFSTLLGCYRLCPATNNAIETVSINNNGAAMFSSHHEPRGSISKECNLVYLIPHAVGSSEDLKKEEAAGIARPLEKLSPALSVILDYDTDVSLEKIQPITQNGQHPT

Experiment [2] deals with H2 (h) (human), P25021.
Experiment [3] deals with T2, alpha 1A (h) (human), P35348.
T2 chain: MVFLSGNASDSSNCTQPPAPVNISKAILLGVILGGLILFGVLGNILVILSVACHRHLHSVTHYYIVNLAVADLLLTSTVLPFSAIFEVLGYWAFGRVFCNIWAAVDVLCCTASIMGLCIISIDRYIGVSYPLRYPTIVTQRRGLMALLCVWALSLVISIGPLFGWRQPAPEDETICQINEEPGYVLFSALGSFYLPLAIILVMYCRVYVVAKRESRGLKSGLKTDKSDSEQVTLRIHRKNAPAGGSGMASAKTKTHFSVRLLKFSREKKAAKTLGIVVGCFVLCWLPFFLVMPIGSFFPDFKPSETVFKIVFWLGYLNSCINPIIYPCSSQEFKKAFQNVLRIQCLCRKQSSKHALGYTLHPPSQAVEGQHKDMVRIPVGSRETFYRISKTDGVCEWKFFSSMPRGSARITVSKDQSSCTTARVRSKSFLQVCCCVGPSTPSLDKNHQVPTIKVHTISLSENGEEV

The target of experiment [4] is 5-HT2B (h) (human), P41595.
The target in experiment [5] is T3, D2S (h) (human), P14416.
T3 chain: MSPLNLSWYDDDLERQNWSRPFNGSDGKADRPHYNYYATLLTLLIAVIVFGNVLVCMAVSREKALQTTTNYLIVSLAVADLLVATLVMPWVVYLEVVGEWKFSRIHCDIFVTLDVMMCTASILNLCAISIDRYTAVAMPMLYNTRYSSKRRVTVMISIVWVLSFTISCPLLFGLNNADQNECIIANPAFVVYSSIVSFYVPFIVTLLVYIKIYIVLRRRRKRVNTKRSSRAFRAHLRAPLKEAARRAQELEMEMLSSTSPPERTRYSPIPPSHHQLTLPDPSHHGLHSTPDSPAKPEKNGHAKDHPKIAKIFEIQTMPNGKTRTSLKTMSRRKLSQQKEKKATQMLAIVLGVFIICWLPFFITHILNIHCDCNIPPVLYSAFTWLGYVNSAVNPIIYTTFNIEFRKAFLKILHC

Experiment [6] deals with T4, M1 (h) (human), P11229.
T4 chain: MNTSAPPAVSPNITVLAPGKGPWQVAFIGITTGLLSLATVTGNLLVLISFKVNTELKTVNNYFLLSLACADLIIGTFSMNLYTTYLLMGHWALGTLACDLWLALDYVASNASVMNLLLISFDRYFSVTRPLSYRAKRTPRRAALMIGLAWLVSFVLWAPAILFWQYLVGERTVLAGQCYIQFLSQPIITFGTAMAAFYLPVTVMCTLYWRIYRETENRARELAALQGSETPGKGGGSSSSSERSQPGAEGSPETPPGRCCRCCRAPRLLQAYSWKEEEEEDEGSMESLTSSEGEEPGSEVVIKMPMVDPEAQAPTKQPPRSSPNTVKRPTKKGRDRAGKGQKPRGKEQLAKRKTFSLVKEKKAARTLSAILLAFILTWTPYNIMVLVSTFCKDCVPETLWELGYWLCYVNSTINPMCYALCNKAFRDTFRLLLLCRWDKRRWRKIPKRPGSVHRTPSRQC

Experiment [7] addresses T5, alpha 2A (h) (human), P08913.
T5 chain: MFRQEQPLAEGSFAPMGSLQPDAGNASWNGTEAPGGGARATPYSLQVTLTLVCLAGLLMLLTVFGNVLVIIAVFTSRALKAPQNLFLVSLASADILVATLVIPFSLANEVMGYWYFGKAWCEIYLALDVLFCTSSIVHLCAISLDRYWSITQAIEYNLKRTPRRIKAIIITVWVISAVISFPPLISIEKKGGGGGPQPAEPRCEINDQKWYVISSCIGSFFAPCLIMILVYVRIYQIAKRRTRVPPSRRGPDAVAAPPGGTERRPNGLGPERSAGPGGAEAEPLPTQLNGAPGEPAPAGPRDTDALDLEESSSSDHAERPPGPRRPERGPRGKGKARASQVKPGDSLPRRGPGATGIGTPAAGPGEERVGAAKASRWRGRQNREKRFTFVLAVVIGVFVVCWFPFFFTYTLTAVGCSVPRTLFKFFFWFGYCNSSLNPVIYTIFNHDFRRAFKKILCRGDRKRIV

The target of experiment [8] is T6, CCK1 (CCKA) (h) (human), P32238.
T6 chain: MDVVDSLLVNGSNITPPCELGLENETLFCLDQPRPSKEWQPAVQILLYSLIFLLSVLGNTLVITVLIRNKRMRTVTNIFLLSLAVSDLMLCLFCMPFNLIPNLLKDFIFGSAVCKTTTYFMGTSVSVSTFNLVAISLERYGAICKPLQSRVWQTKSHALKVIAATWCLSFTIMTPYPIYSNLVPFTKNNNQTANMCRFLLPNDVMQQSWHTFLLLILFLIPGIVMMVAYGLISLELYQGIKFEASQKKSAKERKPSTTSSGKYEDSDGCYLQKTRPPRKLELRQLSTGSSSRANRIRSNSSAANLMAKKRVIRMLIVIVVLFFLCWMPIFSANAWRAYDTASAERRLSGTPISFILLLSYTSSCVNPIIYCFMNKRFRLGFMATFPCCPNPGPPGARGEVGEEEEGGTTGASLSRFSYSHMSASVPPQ

Chain of H2 (h) (human), P25021 (P25021 whole entry): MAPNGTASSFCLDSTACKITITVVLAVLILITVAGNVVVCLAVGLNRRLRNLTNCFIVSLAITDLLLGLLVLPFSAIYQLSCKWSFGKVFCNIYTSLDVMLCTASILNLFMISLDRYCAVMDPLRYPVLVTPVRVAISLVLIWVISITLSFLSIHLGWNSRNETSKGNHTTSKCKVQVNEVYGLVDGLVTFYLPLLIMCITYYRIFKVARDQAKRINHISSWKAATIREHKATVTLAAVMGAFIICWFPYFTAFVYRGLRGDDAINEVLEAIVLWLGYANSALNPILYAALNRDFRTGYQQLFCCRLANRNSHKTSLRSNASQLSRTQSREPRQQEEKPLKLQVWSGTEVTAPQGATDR
Chain of 5-HT2B (h) (human), P41595 (P41595 whole entry): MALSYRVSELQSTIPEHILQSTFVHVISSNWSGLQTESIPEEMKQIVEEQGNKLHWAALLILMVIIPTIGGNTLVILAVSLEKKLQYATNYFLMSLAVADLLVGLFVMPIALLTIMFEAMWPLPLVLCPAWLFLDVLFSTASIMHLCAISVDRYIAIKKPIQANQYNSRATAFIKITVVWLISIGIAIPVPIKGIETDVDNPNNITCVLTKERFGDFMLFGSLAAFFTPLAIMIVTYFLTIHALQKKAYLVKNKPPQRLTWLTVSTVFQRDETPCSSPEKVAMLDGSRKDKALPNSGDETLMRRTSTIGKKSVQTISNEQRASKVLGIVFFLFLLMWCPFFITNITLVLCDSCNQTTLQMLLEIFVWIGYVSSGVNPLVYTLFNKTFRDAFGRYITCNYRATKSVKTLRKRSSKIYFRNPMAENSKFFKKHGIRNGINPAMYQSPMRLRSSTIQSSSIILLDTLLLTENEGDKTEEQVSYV

B1: Hex-[Cys(tMeBn(DOTA-PP))-Pro-Pro-Thr-Gln-Phe-Cys]-Asp-NH2 (3BP-3407) (peptide)
peptide: CPPTQFCD
modifications: here or on the partner: N-terminal hexanoyl (Hex); Cys1 and Cys7 cyclised through tMeBn carrying DOTA-PP; C-terminal amide
In the case of B1, the % Inhibition of Specific Binding was 0% in experiment [1]; -5% in experiment [2]; 2% in experiment [3]; 2% in experiment [4]; 15% in experiment [5]; 6% in experiment [6]. The % Inhibition of Specific Binding is -9% in experiment [7] and 24% in experiment [8].

B2: Hex-[Cys(tMeBn(DOTA-AET))-Pro-Pro-Thr-Gln-Phe-Cys]-OH (3BP-3554) (peptide)
peptide: CPPTQFC
modifications: here or on the partner: N-terminal hexanoyl (Hex); Cys1 and Cys7 cyclised through tMeBn carrying DOTA-AET; free C-terminal acid (-OH)
With B2, the % Inhibition of Specific Binding was 7% in experiment [1]; -16% in experiment [2]; -12% in experiment [3]; 3% in experiment [4]; -7% in experiment [5]; 8% in experiment [6]. Also, the % Inhibition of Specific Binding in experiment [7] was 2%; in experiment [8], 16%.

The values are drawn from US12427210B2, “Compounds comprising a fibroblast activation protein ligand and use thereof” (priority 2019, dated 2025).
